This is an account of results in US9487580.

In the assay the target is T1, recombinant human IL-23 (p19/p40 heterodimer) (human, UniProt Q9NPF7).
T1 chain 1: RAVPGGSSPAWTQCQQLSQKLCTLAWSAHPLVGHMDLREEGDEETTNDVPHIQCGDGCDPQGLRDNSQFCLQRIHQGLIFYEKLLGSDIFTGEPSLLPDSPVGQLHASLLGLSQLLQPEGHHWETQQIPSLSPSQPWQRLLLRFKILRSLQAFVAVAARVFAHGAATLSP
T1 chain 2: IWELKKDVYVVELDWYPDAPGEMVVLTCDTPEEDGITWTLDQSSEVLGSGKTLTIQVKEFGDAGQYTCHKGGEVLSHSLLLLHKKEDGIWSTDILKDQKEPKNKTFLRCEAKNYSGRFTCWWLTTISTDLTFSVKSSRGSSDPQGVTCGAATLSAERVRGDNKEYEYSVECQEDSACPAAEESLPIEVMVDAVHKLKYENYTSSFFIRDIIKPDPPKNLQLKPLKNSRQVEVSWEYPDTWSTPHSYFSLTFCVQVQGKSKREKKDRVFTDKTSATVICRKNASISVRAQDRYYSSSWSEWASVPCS
Nature of the assay: KinExA. Background: In KinExA the mixture passes briefly over coated beads that capture the unbound partner.

B1: Antibody B (antibody, V domains shown)
VH: QVQLQESGPGLVKPSQTLSLTCTVSGGSISSGGYYWSWIRQHPGKGLEWIGHIHYSGNTYYNPSLKSRVTISVDTSKNQFSLKLSSVTAADTAVYYCARNRGFYYGMDVWGQGTTVTVSS
VL: DIQMTQSPSSVSASVGDRVTITCRASQVISSWLAWYQQKPGKAPSLLIYAASSLQSGVPSRFSGSVSGTDFTLTISSLQPEDFATYYCQQANSFPFTFGPGTKVDFK
For orientation: Kd means the equilibrium constant for the complex coming apart. On to B1, for which the Kd was found to be 3.99 pM.
